# Experimental data from patent US20240252641A1 (published 2024).
# T1: human CD70, recombinant, N-terminally biotinylated (residues 39-193) (human, UniProt P32970 39-193, N-terminal biotin)
# T1 chain: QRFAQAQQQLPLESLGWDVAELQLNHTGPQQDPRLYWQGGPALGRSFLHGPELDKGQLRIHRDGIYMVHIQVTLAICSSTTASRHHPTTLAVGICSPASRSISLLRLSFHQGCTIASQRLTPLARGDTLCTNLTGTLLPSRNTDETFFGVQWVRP
# B1: 50-TC7-III-A11 (scFv)
# scFv: QVQLVQSGAEVKRPGASVKVSCKASGYTFTSYYMHWVRQAPGQGLEWMGIINPSGGSTSYAQKFQGRVTMTRDTSTSTVYMELSSLRSEDTAVYYCAIEPGYCSGGSCYPDAFDIWGQGTTVTVSSGGSGGSGGSGGSQSVLTQPPSASGTPGQRVTISCSGSSSNIGSDYVYWYQRVPGTAPKLLIYRDNQRPSGVPDRFSGSKSGTSASLAISGLRSDDEADYYCAAWDDSLSGWVFGGGTKVTVL
# B2: 1-TC4-I-C10 (scFv)
# scFv: EVQLVQSGAEVKKPGESLKISCKGSGYSFTSYWIGWVRQMPGKGLEWMGIIYPGDSDTRYSPSFQGQVTISADKSISTAYLQWSSLKASDTAMYYCAISRTESYVMDVWGQGTTVTVSSGGSGGSGGSGGSQSALTQPRSVSGSPGQSVTISCTGTSSDVGGYNYVSWYQQHPGKAPKLMIYDVTNRPSGVPDRFSASKSDNTATLTVSGVQAEDEADYYCSSYAGSHELFGGGTKLTVL
# B3: 39-TC6-IV-B08 (scFv)
# scFv: QVQLVESGGGVVQPGGSLRLSCAASGFTFSSYAMHWVRQAPGKGLEWVAVISYDGSNKYYADSVKGRFTISRDNSKNTLYLQMNSLRAEDTAVYYCARDGHPYYYGMDVWGQGTTVTVSSGGSGGSGGSGGSQSALTQPASVSGSPGQSITISCTGTSSDVGDYNYVSWYQHHPGKAPKLMIYDVSNRPSGVSNRFSGSKSGNTASLTISGLQAEDEADYYCGSYTGSDTWVFGGGTKVTVL
# B4: R3aP3E8 VHH (VHH)
# VHH: QVQLQESGGGLVQPGGSLRLSCVASGSIFSIARMNWYRQAPGKQRELVAILNRAGRTDYADSVKGRFTISSDNAKTTVYLQMNSLKPEDTALYYCNLQTISYHDFWGQGTQVTVSS
# B5: R3P5A1 VHH (VHH)
# VHH: QVQLQESGGGLVQPGGSLRLSCTASGSIFSATRMEWYRQAPGKQRELVAIVTSGGRTNYADSVNGRFTISRDNAKNTLYLQMNNLKPEDTAVYYCKFERYDYVNYWGRGTQVTVSS
# B6: R3aP9D10 VHH (VHH)
# VHH: QVQLQESGGGLVQAGGSLRLSCAAPGFTFDAYAIGWFRQAPGKEREGVICLSPSDGSTYYADSVKGRFTISSDNAKNTVYLQMNSLKPEDTAVYYCATPSWCSLKADFGSWGQGTQVTVSS
# B7: R3P3H12 VHH (VHH)
# VHH: QVQLQESGGGLVQTGGSLRLSCTASGSIFDIVRGSWYRQAPGNQRELVAIITSGGATNYADSVAGRFTISRDSAWKALYLQMNSLKPEDTAVYFCNMESVRYRNYWGQGTQVTVSS
# B8: human CD27 fused to human Fc domain (Fc fusion)
# chain: TPAPKSCPERHYWAQGKLCCQMCEPGTFLVKDCDQHRKAAQCDPCIPGVSFSPDHHTRPHCESCRHCNSGLLVRNCTITANAECACRNGWQCRDKECTECDPLPNPSLTARSSQALSPHPQPTHLPYVSEMLEARTAGHMQTLADFRQLPARTLSTHWPPQRSLCSSDFIRI
# B9: CD70 (ligand)
# chain: T1 chain
# modifications: N-terminal biotin
# Biological target: T1, human CD70, recombinant, N-terminally …
# Test: Octet BLI steady-state
row,Kd [nM],Binder
1,55.7,B1
2,56.7,B2
3,41.7,B3

# Biological target: T1, human CD70, recombinant, N-terminally …
# Test: Octet BLI
row,Kd [nM],Binder
1,0.027,B4
2,0.025,B5
3,0.036,B6
4,0.16,B7
5,1.7,B8

# Biological target: 41D12 (LwH)
# Test: Octet BLI
row,Kd [nM],Binder
1,0.001,B9
